From patent US20260274983A1 (MODERNATX, published 2026) come the findings set out here.

The target in experiment [1] is T1, human GPRC5D (human, UniProt Q9NZD1 1-345).
T1 construct: whole, on cells; Human is stated only for CHO-HuGPRC5D; also called HuGPRC5D; GPRC5D on CHO-HuGPRC5D cells
Put plainly: FACS on H929 cells, VHH-His.

Experiment [2] has as its target T1, human GPRC5D. Briefly: FACS on CHO-HuGPRC5D cells, VHH-His.
Experiment [3] concerns the target T2, human BCMA (human, UniProt Q02223 1-184).
T2 construct: whole, on cells; Human is stated only for CHO-HuBCMA; also called HuBCMA; B-cell maturation antigen
T2 sequence (looked up): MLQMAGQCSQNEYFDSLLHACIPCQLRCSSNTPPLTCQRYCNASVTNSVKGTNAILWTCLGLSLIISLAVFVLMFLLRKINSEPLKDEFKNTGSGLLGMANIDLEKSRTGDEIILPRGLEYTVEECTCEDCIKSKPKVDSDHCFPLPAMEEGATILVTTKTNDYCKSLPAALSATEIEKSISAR
Briefly: FACS on H929 cells, Fc formatted.

Experiment [4] has as its target T2, human BCMA. Briefly: FACS on CHO-HuBCMA cells, Fc formatted.
In experiment [5] the target is T1, human GPRC5D. Briefly: FACS on CHO-HuGPRC5D cells.
Experiment [6] has as its target T3, CD38 (UniProt P28907 1-300, limits assumed).
T3 construct: whole, on cells; also called CD38 on RPMI8226 cells; CD38 on H929 cells
T3 sequence (looked up): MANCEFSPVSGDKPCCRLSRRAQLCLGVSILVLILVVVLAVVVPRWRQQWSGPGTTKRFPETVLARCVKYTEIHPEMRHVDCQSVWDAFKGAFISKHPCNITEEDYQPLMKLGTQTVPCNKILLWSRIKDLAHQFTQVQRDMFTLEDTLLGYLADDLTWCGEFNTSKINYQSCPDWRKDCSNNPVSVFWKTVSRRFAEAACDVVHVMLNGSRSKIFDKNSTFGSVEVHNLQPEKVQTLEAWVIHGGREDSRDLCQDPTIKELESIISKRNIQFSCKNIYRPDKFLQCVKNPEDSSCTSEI
Put plainly: FACS on RPMI8226 cells, VHH-His.

Experiment [7] addresses T3, CD38. Put plainly: FACS on H929 cells, VHH-His.

T1 sequence (Q9NZD1 whole entry): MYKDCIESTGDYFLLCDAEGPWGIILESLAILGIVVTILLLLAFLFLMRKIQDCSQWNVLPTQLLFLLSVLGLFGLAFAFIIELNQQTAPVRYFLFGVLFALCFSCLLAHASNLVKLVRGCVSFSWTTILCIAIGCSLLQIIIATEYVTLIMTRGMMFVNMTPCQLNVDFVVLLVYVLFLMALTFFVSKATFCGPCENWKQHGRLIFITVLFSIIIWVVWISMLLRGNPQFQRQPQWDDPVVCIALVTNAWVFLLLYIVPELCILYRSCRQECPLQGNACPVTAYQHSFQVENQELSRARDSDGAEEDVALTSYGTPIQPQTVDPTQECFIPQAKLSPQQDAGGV

B1: GPRC5D-VHH2 (VHH)
VHH: QVQLVESGGGLVQAGGSLRLSCAASGRTASAYVMGWFRQAPGKERDFVAGISGGAYYADSVKGRFTIARDNAKNTVYLQMNSLKPEDTAVYYCAAERGMRRLTESYQYDYWGQGTQVTVSS
Consider B1, for which the EC50 was 0.23 nM in experiment [1] and 0.68 nM in experiment [2].

B2: BCMA-VHH20 (Fc fusion)
chain: QVQLVESGGGLVQPGGSLRLSCAASGFTFSNYAMIWVRQAPGKGLEWVSSINANSDTTAYSDSVKGRFAISRDNARNTLYLQMNSLKPEDTAVYFCVSDSYIGGLYATYVYWGQGTQVTVSS
notes: not shown: Fc of the Fc formatted construct
With B2, in experiment [3], the EC50 came out at 83.4 nM.

B3: BCMA-VHH16 (Fc fusion)
chain: QVKLEESGGGLVQAGGSLRLSCAASGHTFSNSAMGWIRQAPGKEREFVAAISLNGGNTHYAESVKGRFAISRDNAKNTMYLQMNSLKPEDTAVYYCATLGFASWGQGTQVTVSS
notes: as for B2
B3 returned an EC50 in experiment [3] of 41.8 nM.

B4: BCMA-VHH9 (Fc fusion)
chain: QVKLEESGGGFVQPGGSLRLSCAASGFTYSSYWMHWVRQAPGKGLEWVSGISTGGDTTDTYYADSVKGRFTISRDNAKNTLYLQMNSLKPEDTAVYYCVALNLWGTDLEHDYWGRGTQVTVSS
notes: as for B2
The molecule B4 had an EC50 in experiment [3] of 43.4 nM.

B5: BCMA-VHH8 (Fc fusion)
chain: QVQLVQSGGGLVLPGGSLRLSCAASGFTLSSYWMHWLRQAPGKGLEWVSAIKPESGITYYAESMKGRFTISRDNAKNTLYLQMNSLKSEDSALYYCVREDYDSAYVGDYWGKGTQVTVSS
notes: as for B2
In experiment [4], B5 showed an EC50 of 170 nM.

B6: BCMA-VHH2 (Fc fusion)
chain: HVQLVESGGGLVQTGGSLRLSCAASGRTLNNYVVAWFRQAPGKEREFVATMWWSGGSPWYSDNVKGRFTISRDNAKNTLYLQMNSLRPEDTAVYYCAATWVGTSEYRHWGQGTQVTVSS
notes: as for B2
On to B6, for which the EC50 in experiment [4] stood at 0.8 nM.

B7: BCMA-VHH4 (Fc fusion)
chain: QVKLEESGGGLVQTGGSLRLSCAASGRTLNNYVVAWFRQAPGKEREFVATMWWSGGSPWYSDNVKGRFTISRDNAKNTLYLQMNSLRPEDTAVYYCAATWVGTSEYQHWGQGTQVTVSS
notes: as for B2
In experiment [4], B7 showed a 50% effective concentration (EC50) of 0.57 nM.

B8: BCMA-VHH11 (Fc fusion)
chain: QVQLVDSGGGLVQPGGSLRLSCAASGFTFSSYWMYWVRQAPGKGLEWVSAINTDGDSTYYADSVKGRFTVSRDVAGNMIYLQMTNLKPEDTAVYTCAAIVTRSDGHQYDYWGRGTQVTVSV
notes: as for B2
For B8, the midpoint of the response in experiment [3], the EC50, lay at 45.9 nM.

B9: GPRC5D-VHH1 (VHH)
VHH: SVQLVESEGGLVQAGGSLRLSCVASGRTVSSYAMGWFRQAPGKEREFVAAISWSGRSTYYADSMKGRFTISRDNAKNTVYLQMNNLRPEDTAVYYCATSRAVIPGRDWNYYEYSGQGTQVTVSS
Regarding B9, the values for the EC50 in experiment [1] and in experiment [2] were 13.2 nM and 2.52 nM, respectively.

B10: GPRC5D-VHH1-H7 (VHH)
VHH: QVQLVESGGGLVQPGGSLRLSCAASGRTVSSYAMGWFRQAPGKEREFVSAISWSGRSTYYADSMKGRFTISRDNAKNTLYLQMNSLRAEDTAVYYCATSRAVIPGRDWNYYEYWGQGTLVTVSS
notes: Humanized variant of GPRC5D-VHH1
In turn, B10 displayed an EC50 in experiment [5] of 4.44 nM.

B11: CD38-VHH5 (VHH)
VHH: QVQLVESGGGLVQTGGSLRLSCVASGAIVSAESMGWYRQAPGNQRELVAEIISGSKSNYGESVKGRFTISRDNAENTVYLQMNSVKPEDTAVYYCKRTERIWTNNPQVYWGQGTQVTVSS
Take B11: in experiment [6], the EC50 was determined as 71.3 nM.

B12: CD38-VHH8 (VHH)
VHH: QVQLVESGGGLVQAGGSLRLSCAASGSSVSMNSMAWYRQAPGKQRELVALITPGDRINYADFVKGRFTISRDNAKNTVNLQMNNLKPEDTAVYYCNIGATRPPFGAWGQGTQVTVSS
Turning to B12, the EC50 was 2.06 nM in experiment [7] and 0.45 nM in experiment [6].

B13: BCMA-VHH15 (Fc fusion)
chain: QVQLVESGGGLVQPGGSLRLSCAASGFTFSTYSMYWVRQAPGKGLEWVSAIDARGVNTYYADSVRGRFTVSRDNAKNTLYLQMNNLKLEDTALYYCGGWEFATWGRGTQVTVSS
notes: as for B2
Take B13: the EC50 in experiment [4] is 1.76 nM.

B14: CD38-VHH9 (VHH)
VHH: QVQLVESGGGLVQAGGSLRLSCVASGFIYSISTMGWYRQAPGKQRELVATITSGGNTNYADSVKGRFTISRDNAQNTVYLQMNNLKPEDTAIYYCNTAWRETIVSRVWGQGTQVTVSS
On to B14, for which the values for the EC50 in experiment [7] and in experiment [6] were 2.62 nM and 0.51 nM, respectively.

B15: BCMA-VHH3 (Fc fusion)
chain: QVQLVESGGGLVQAGGSLRLSCAASGSIFAYHVMGWYRQAPGKQRELVALITSGGSTNYTDSVKGRFTISRDNAKNTVYLQMNSLKPEDTAVYYCAIGYYSGSYYWERSGDYWGQGTQVTVSS
notes: as for B2
B15: the EC50 in experiment [3] is 11 nM.

B16: CD38-VHH1 (VHH)
VHH: QVQLVESGGGLVQPGDSLRLSCAASGFILDTYSVAWFRQAPGKEREGVSCISSRDGNTFYSDSVKGRFTISRDNAKNTVYLQMNSLKSEDTAVYTCAAGAQAHCTIFTSYFNSDYYRRYNYWGQGTQVTVSS
For B16, the EC50 is 4.43 nM in experiment [7] and < 1 nM in experiment [6].

B17: BCMA-VHH18 (Fc fusion)
chain: PVQLVESGGGLVQAGGSLRLSCAASGRTFSSYAMGWFRQAPGKEREFVAGVSWTGDNTGYADSVKGRFTISRDNFKSTVYLEMNSLKPEDTAVYFCAAWNWGHHEYTYWGRGTQVTVSS
notes: as for B2
As for B17, the EC50 in experiment [4] was determined as 1020 nM.

B18: BCMA-VHH17 (Fc fusion)
chain: QVQLVESGGGLVQAGGSLRLSCAASGRTFSGYTMAWFRQAPGSEREFVAAAVGSDGSTYYVDSVKGRFTMSRDSAKNTVYLMMTSLQPVDSAVYFCVKLDSGAWSLAEWGQGTQVTVSS
notes: as for B2
As to B18, in experiment [3], the response was half-maximal at 1.01 nM (EC50).

B19: CD38-VHH12 (VHH)
VHH: QVQLVESGGGLVQAGGSLRLSCVASGIIFRIFSMGWYRQAPGKQRELVATITSGGNTNYAHSVKGRFTISRDDAKNTVNLQMNSLKPEDTAVYYCNVAIPSGIVDRSAWGQGTQVTVSS
For the molecule B19, the EC50 in experiment [7] amounted to 25.7 nM; in experiment [6], 10.5 nM.

B20: BCMA-VHH7 (Fc fusion)
chain: EVQLVDSGGGLVQAGGSLRLSCAASGSTFSRYAMGWIRQAPGKEREFVAAISWSGGSTYYADSVKGRFTISRDVAKNTVSLQMNSLKPEDAGVYFCFGDIIRSGERSDYEYWGQGTRVTVTS
notes: as for B2
B20 displayed an EC50 in experiment [3] of 268 nM.

B21: BCMA-VHH1 (Fc fusion)
chain: AVQLVDSGGGLVTAGDSLTLSCVASGRTLSPYTAGWFRQAPGREREFVALITARGDWTSYSDSVKGRFTISRDNAKNTIYLQMNSLEPEDTALYYCVRDLLGRDDYWGQGTQVTVSS
notes: as for B2
B21 showed an EC50 in experiment [3] of 78 nM.

B22: CD38-VHH6 (VHH)
VHH: QVQLVESGGGLVQAGGSLRLSCAASGTFSSINLMGYYRQAPGKQREFVARDYTEGTTDYADSVKGRFTISRDNTKKTVFLQMNNLKPEDTAIYYCWLMVRAGDVYWGQGTQVTVSS
On to B22, for which the EC50 in experiment [7] amounted to 101 nM; in experiment [6] it was 28.4 nM.

B23: CD38-VHH7 (VHH)
VHH: QVQLVESGGGLVHTGGSLRLSCAASGSISGLNTMGWYRQAPGKQRELVATIISGTMTRYADSVKGRFTISKDNAKNTVYLQMNSLKPEDTAVYYCTFKEITRDSRSYWGQGTQVTVSS
As for B23, the values for the concentration giving a half-maximal response (EC50) in experiment [7] and in experiment [6] were 3.55 nM and 1.91 nM, respectively.

B24: CD38-VHH3 (VHH)
VHH: QVQLVESGGGLVQAGGSLTLSCAASRSIFEINTMTMGWYRQAPGKQRELIAASRGATTNYADSVKGRFTISRDNAKNTVYLQMNSLKPEDTAVYYCSADRYGFGYGDNDYWGQGTQVTVSS
As to B24, the 50% effective concentration (EC50) in experiment [7] turned out to be 1.36 nM; in experiment [6], 0.35 nM.

B25: CD38-VHH2 (VHH)
VHH: QVQLVESGGGLVQPGGSLRLSCAASGFIFSDKVMSWVRQAPGKGREWVSTITPGGTATSYTESVKGRFTISRDNAKNTLYLQMNNLKPDDTALYYCRIGGPGGRYDNWGQGTQVTVSS
On to B25, for which the 50% effective concentration (EC50) in experiment [7] came to 6.14 nM; in experiment [6], 1.01 nM.

B26: BCMA-VHH13 (Fc fusion)
chain: QVQLVDSGGRLVQAGDSLRLSCSASGFTFGSYWMFWVRQAPGKGLEWVSAIDTSGGHVYYGDSVNGRFTISRDNAKNTLYLQMNSLKPEDTALYYCARVENTWESIYWGQGTTVTVSS
notes: as for B2
On to B26, for which the EC50 in experiment [3] came to 15.5 nM.

What is called EC50 is the concentration needed to bring the measured effect to its halfway point.
